B1: library; numbered along this chain (parent)
chain: MATDAALRRLLRLHRTEIAVAVDSAFPLLHALADHDVVPEDKFQETLHLKEKEGCPQAFHALLSWLLTQDSTAILDFWRVLFKDYNLERYGRLQPILDSFPKDVDLSQPRKGRKPPAVPKALVPPPRLPTKRKASEEARAAAPAALTPRGTASPGSQLKAKPPKKPESSAEQQRLPLGNGIQTMSASVQRAVAMSSGDVPGARGAVEGILIQQVFESGGSKKCIQVGGEFYTPSKFEDSGSGKNKARSSSGPKPLVRAKGAQGAAPGGGEARLGQQGSVPAPLALPSDPQLHQKNEDECAVCRDGGELICCDGCPRAFHLACLSPPLREIPSGTWRCSSCLQATVQEVQPRAEEPRPQEPPVETPLPPGLRSAGEEVRGPPGEPLAGMDTTLVYKHLPAPPSAAPLPGLDSSALHPLLCVGPEGQQNLAPGARCGVCGDGTDVLRCTHCAAAFHWRCHFPAGTSRPGTGLRCRSCSGDVTPAPVEGVLAPSPARLAPGPAKDDTASHEPALHRDDLESLLSEHTFDGILQWAIQSMARPAAPFPS

Variants of: B1
Experiment: AIRE transcriptional activation functional score (insulin promoter-GFP; nonsense median 0, synonymous median 1) (normalised score); higher = higher AIRE activity (more reporter activation)
Details: with insulin promoter-GFP reporter in HEK293
How it was run: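 Flp-In T-REx HEK293 landing-pad cells carrying an insulin core promoter-GFP reporter received codon-optimized AIRE NNN-codon libraries (three regions) through Bxb1 recombinase. Sorting of mCherry+, BFP− integrants took place at day 7, followed by 7 days of expansion and tile-sequencing of top 10% GFP and unselected integrant populations. A functional score was derived from select versus non-select variant enrichment with wild type subtracted. Values from variants reaching 10 counts per million in non-select were set to nonsense median 0 and synonymous median 1 and averaged over biological replicates.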

AIRE transcriptional activation functional score: each site, then its substitutions
Q425: H 1.3; T 0.973; D 0.431; R 0.94; I 1.07; P 1.21; Y 1.28; A 0.368; F 1.13; N 0.869; E 0.587; W 1.28; L 1.18; G 1.04; K 0.902; M 0.974; C 0.714; S 1.06; V 0.734
R433: T 0.808; A 0.402; E 1.39; M 0.755; Q 1.13; D 0.895; F 0.678; P 0.565; L 0.786; N 1.15; K 1.03; H 0.569; G 0.748; S 0.734; I 0.308; C 0.922
L428: S 1.15; N 1.08; P 0.955; W 1.31; C 0.816; A 1.08; M 1.32; Y 1.05; K 0.817; D 0.545; G 0.959; F 1.09; Q 1.01; H 1.48; I 1.22; R 0.941; E 0.885; T 0.817
A432: V 0.872; S 0.578; T 0.81; N -0.334; Q 0.748; C 1.2; K 0.599; M 0.0975; G 1.22; P 0.463; W 1.88; I 0.534; E 1.16; F 1.06; D 0.806; Y 1.28; H 0.437; R 0.993; L 0.822
A429: Y 0.892; C 0.771; E 0.833; L 1.06; N 1.09; I 1.14; S 1.09; G 0.724; V 1.01; W 1.2; F 1.34; P 0.614; R 0.843; T 1.12; H 1.47; D 1.07; Q 1.32; K 0.0334
G431: L 0.794; R 0.579; S 0.927; K 0.71; F 1.14; I 1.32; D 0.852; W 1.29; T 1.21; C 0.854; M 0.776; N 0.881; Q 0.86; H 1.39; E 0.793; V 1.13; Y 0.576; A 1.23; P 0.983
Q426: K 1.16; E 1.07; I 0.87; R 0.722; T 1.17; H 1.18; F 1.34; C 1.4; D 0.796; M 1.34; N 1.23; G 0.866; P 1.09; V 1.29; Y 1.54; L 1.06; W 1.64; S 0.831; A -0.467
P430: T 0.77; D 0.951; E 1.01; F 1.69; W 1.3; N 1.14; Y 1.03; L 1.18; Q 1.01; I 1.28; A 0.806; G 1.21; C 0.92; S 0.992; K 0.999; R 0.778; V 0.632; H 1.32
N427: W 1.3; S 1.1; Y 1.47; C 1.1; L 1.51; H 0.904; G 1; R 0.362; T 1.07; E 1.12; P 1.18; M 1.81; K 0.842; A 1.33; F 1.42; I 1; D 1.07; Q 0.539; V 1.06
G424: W 1.26; Y 0.738

— the supplement of paper PMC12667976
